Data on two molecules can be found in PMC6033465.

One experiment addresses human lysozyme c (human) (UniProt P61626).
For experiment [1], the target named is recombinant wild type SliC (surface-exposed lysozyme inhibitor of c-type lysozyme, NGO1063) of N. gonorrhoeae FA1090 (N. gonorrhoeae FA1090). The experiment in a line: BLI; biotinylated rSliC (20 ug/mL, 10 min) immobilised on streptavidin sensors, increasing concentrations of HL in solution; Kinetic Buffer (20 mM HEPES pH 8, 15 mM NaCl, 0.002 Tween 20, 0.1 mg/mL BSA); association and dissociation 600 s; 2:1 (Heterogeneous Ligand) model; three biological …; OctetRed 96. On the technique in general: BLI is a label-free optical method that tracks binding on a fibre tip over time.

“recombinant wild type SliC (surface-exposed lysozyme inhibitor of c-type lysozyme, NGO1063) of N. gonorrhoeae FA1090 (natural protein)” displayed an IC50 of SliC against the lytic activity of HL towards M. lysodeikticus peptidoglycan (fluorescein-labeled cell walls; 2.5 μM HL, 0-10 μM SliC) with human lysozyme c (human) of 1.85 µM.

B1: human lysozyme c (enzyme)
chain: KVFERCELARTLKRLGMDGYRGISLANWMCLAKWESGYNTRATNYNAGDRSTDYGIFQINSRYWCNDGKTPGAVNACHLSCSALLQDNIADAVACAKRVVRDPQGIRAWVAWRNRCQNRDVRQYVQGCGV
As usually defined, the Kd is the constant that tells how readily two partners part at equilibrium. As for B1, in experiment [1], the Kd was determined as 9.2 µM.
